From patent US20230118302 (published 2023) come the findings set out here.

Changes are numbered by the printed parent chain. Where two headings read alike, the source gives them in different places.

For experiment [1], the target named is T1, HER2 on cells (human, UniProt P04626). Kind of experiment: FACS, MCF7.
Experiment [2] has as its target T1, HER2 on cells. Kind of experiment: FACS, MCF7. This is another data set of the same source.
Experiment [3] has as its target T1, HER2 on cells. Put plainly: FACS, WI-38.
For another experiment, the target named is CD16a V158 (human, UniProt P08637). Kind of experiment: SPR. (SPR reads the build-up and loss of mass on a sensor chip optically.)
CD16a V158, sequence (P08637 17-208 F176V): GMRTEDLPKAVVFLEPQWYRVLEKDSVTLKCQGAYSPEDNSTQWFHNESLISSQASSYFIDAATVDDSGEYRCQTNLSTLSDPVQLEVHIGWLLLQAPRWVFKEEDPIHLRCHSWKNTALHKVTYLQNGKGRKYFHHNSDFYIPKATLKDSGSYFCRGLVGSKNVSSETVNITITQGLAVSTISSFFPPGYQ
Experiment [4] deals with T2, HER2 ECD (human, UniProt P04626). Kind of experiment: SPR.
In experiment [5] the target is T2, HER2 ECD. Put plainly: SPR. The source holds these as a separate data set.

B1: v10000 (antibody)
chain 1: EVQLVESGGGLVQPGGSLRLSCAASGFTFADYTMDWVRQAPGKGLEWVGDVNPNSGGSIYNQRFKGRFTFSVDRSKNTLYLQMNSLRAEDTAVYYCARNLGPSFYFDYWGQGTLVTVSSASTKGPSVFPLAPSSKSTSGGTAALGCLVKDYFPEPVTVSWNSGALTSGVHTFPAVLQSSGLYSLSSVVTVPSSSLGTQTYICNVNHKPSNTKVDKKVEPKSCDKTHTCPPCPAPELLGGPSVFLFPPKPKDTLMISRTPEVTCVVVDVSHEDPEVKFNWYVDGVEVHNAKTKPREEQYNSTYRVVSVLTVLHQDWLNGKEYKCKVSNKALPAPIEKTISKAKGQPREPQVYVYPPSRDELTKNQVSLTCLVKGFYPSDIAVEWESNGQPENNYKTTPPVLDSDGSFALVSKLTVDKSRWQQGNVFSCSVMHEALHNHYTQKSLSLSPG
chain 2: not shown
chain 3: not shown
As to B1, the Kd with HER2 on cells [1] was found to be 6.8 nM; in the experiment with HER2 on cells [2], 3.7 nM; with HER2 on cells [3], 8.4 nM.

B2: v7148 (antibody)
chain 1: B1 chain 1 with A30T, G49A, F70L
chain 2: not shown
chain 3: not shown
modifications: v7091 conjugated to SMCC-DM1
B2: binding with CD16a V158 was put at a Kd of 120 nM.

B3: v7091 (antibody)
chain 1: B1 chain 1 with A30T, G49A, F70L
chain 2: not shown
chain 3: not shown
As to B3, binding in the experiment with CD16a V158 was characterised by a dissociation constant (Kd) of 120 nM.

B4: v10014 (antibody, V domains shown)
VH: EVQLVESGGGLVQPGGSLRLSCAASGFTFADYTMDWVRQAPGKGLEWVADVNPNSGGSIYNQRFKGRFTLSVDRSKNTLYLQMNSLRAEDTAVYYCARNLGPSFYFDYWGQGTLVTVSS
VL: DIQMTQSPSSLSASVGDRVTITCKASQDVSIGVAWYQQKPGKAPKLLIYSASYRYTGVPSRFSGSGSGTDFTLTISSLQPEDFATYYCQQYYIYPATFGQGTKVEIK
For B4, the results for the Kd with HER2 ECD [4] and with HER2 ECD [5] were 2.1 nM and 2 nM, respectively.

As usually defined, the Kd is the concentration at which binding is half-saturated. A lower Kd goes with tighter binding.
